Measurements published in the supplement of paper PMC9170038.

Tested on: MS2 coat protein
Test: apparent KD of MS2 coat protein; designed switch direction (-1 OFF switch, 1 ON switch): -1; higher = weaker reporter binding
Method in brief: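 For each design, the apparent KD is the median over clusters of curves fitted to normalised cluster fluorescence. Clusters held RNA switches with common flanks, transcribed on Illumina chips by stalled E. coli RNA polymerase. These were titrated with SNAP-549-labelled MS2 coat protein, doubling from 0.7 or 1.5 nM to 3 µM, without input, with 200 uM small-molecule ligand, or with an oligonucleotide input.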

[1] = Eterna round: R95, input ligand: FMN 200 uM
[2] = Eterna round: R95, input ligand: microRNA oligo, concentration not stated
[3] = Eterna round: R95, input ligand: none
[4] = input ligand: microRNA oligo, concentration not stated

GGUACUAACACGAUAGUGUUAGUACUAUAAGCUUGUGUUACAUGAGGAUCACCCAUGUCCUCAUAGGCUCGUCUUAU [Mat - Sensor v3 - Turn-off var 2 - D86] (puzzle: Sensor v3, turn-off variant 2)
apparent KD of MS2 coat protein [1]: 169 nM
apparent KD of MS2 coat protein [2]: 30.8 nM
apparent KD of MS2 coat protein [3]: 166 nM

GGUACUAUCACCUGAGUGGUAGUGCCACAAGCUUGUGAUACAUGAGGAUCACCCAUGUCCUCAUUUGCUCGUCUUAU [JL-sv3-2.28 JL mod] (puzzle: Sensor v3, turn-off variant 2)
apparent KD of MS2 coat protein [1]: 289 nM
apparent KD of MS2 coat protein [2]: 1080 nM
apparent KD of MS2 coat protein [3]: 343 nM

GGUACUCAAAGAGUACCAAUACGAACAUGAGGAUCACCCAUGUAGGAUAUGCUACUCAAAGAGUAGCAGAAGGACAUGAACCCU [Far Half Aptamer v7] (Eterna round: R96, puzzle: Exclusion NG 3)
apparent KD of MS2 coat protein (input ligand: FMN 200 uM): 571 nM
apparent KD of MS2 coat protein [4]: 38.3 nM
apparent KD of MS2 coat protein (input ligand: none): 61.8 nM

GGUAGAGUGGUAGGAUAUCCGACUGAAACAGACGGAGAAGGACCACAGUCACUGGGUCCACUUAUAAUUAACAAUAAAUCUACC [pwkr exNG1 F6.2] (Eterna round: R96, puzzle: Exclusion NG 1)
apparent KD of MS2 coat protein (input ligand: FMN 200 uM): 326 nM
apparent KD of MS2 coat protein [4]: 120 nM
apparent KD of MS2 coat protein (input ligand: none): 263 nM

GGUAGAGUGGUAGGAUAUCCGUCUGUUUCAGUCGGAGAAGGACCACAGUCACUGGGUCCUAAUAUCAUGGAGACCUGAUCUACC [pwkr exNG1 F6.12] (Eterna round: R96, puzzle: Exclusion NG 1)
apparent KD of MS2 coat protein (input ligand: FMN 200 uM): 2200 nM
apparent KD of MS2 coat protein [4]: 316 nM
apparent KD of MS2 coat protein (input ligand: none): 284 nM

GGUAGGUGUGACUUGGGUGACAUGAGGAUCACCCAUGUCACAAGCUUGUUGCUCGCCUUGUAAUUAACCCAUGUCAC [LRO Sensor-off var1-29 mod of Stov1-13-A1 by Brourd] (Eterna round: R97, puzzle: Sensor, turn-off variant 1)
apparent KD of MS2 coat protein (input ligand: FMN 200 uM): 21.5 nM
apparent KD of MS2 coat protein (input ligand: none): 21.5 nM

GGUAUACAUGAGGAUCACCCAUGUCAGGAUAUGGUAUCCUGUGCCGAAAGGCACAGGUCCAGAAGGGACGAUAG [AK-MS2ROC-r4-exclusion1-5.2] (Eterna round: R97, puzzle: Exclusion 1)
apparent KD of MS2 coat protein (input ligand: FMN 200 uM): 109 nM
apparent KD of MS2 coat protein (input ligand: none): 91.7 nM

GGUAUGGCCACAGGAUAUUGAGCCACAUGAGGAUCACCCAUGUGAGGACGUAGAAUCGCCUGGCCCAAGAAGGGUGAAGCCCAU [Eternabot solution 4] (Eterna round: R96, puzzle: Exclusion NG 2)
apparent KD of MS2 coat protein (input ligand: FMN 200 uM): 17.1 nM
apparent KD of MS2 coat protein [4]: 13.1 nM
apparent KD of MS2 coat protein (input ligand: none): 28 nM

GGUCAAGAACAGAACCGCGCUGCCAUUGACCGCUCAUUUACAUGAGGAUCACCCAUGUUUUUUGCUUGUCUUGUUAC [Beusdieson] (puzzle: Sensor v3, turn-off variant 2)
apparent KD of MS2 coat protein [1]: 16.2 nM
apparent KD of MS2 coat protein [2]: 89.9 nM
apparent KD of MS2 coat protein [3]: 18.7 nM

GGUCAAGAACAGCUCCGCGCUGCCCUCGACCGCUCAUUUACAUGAGGAUCACCCAUGUUUUUUGCUUGUCUUGUUAC [Usvetive] (puzzle: Sensor v3, turn-off variant 2)
apparent KD of MS2 coat protein [1]: 16.9 nM
apparent KD of MS2 coat protein [2]: 91.8 nM
apparent KD of MS2 coat protein [3]: 16.5 nM

GGUCAAGAGCAGCUCCGCGCUGCCAUUGACCGCUCAUUUACAUGAGGAUCACCCAUGUUUUUUGCUCGUCUUAUUAC [Somabi] (puzzle: Sensor v3, turn-off variant 2)
apparent KD of MS2 coat protein [1]: 18.5 nM
apparent KD of MS2 coat protein [2]: 53.2 nM
apparent KD of MS2 coat protein [3]: 18.8 nM

GGUCAGACGGUAGGAUAUCCAUAUCGAGUGACCCUUUCAUAACAUGAGGAUCACCCAUGUCGGUGGGAGAAGGGCCGUACGGCG [salish99_ExNG02_R04_001] (Eterna round: R96, puzzle: Exclusion NG 2)
apparent KD of MS2 coat protein (input ligand: FMN 200 uM): 146 nM
apparent KD of MS2 coat protein [4]: 70.4 nM
apparent KD of MS2 coat protein (input ligand: none): 63.2 nM

GGUCAGAUGGUAGGAUAUCCAUAUCGAGUGACCCUUUCAUAACAUGAGGAUCACCCAUGUCGGUGGGAGAAGGGUCGUACGGCG [salish99_ExNG02_R04_020] (Eterna round: R96, puzzle: Exclusion NG 2)
apparent KD of MS2 coat protein (input ligand: FMN 200 uM): 21.3 nM
apparent KD of MS2 coat protein [4]: 16.4 nM
apparent KD of MS2 coat protein (input ligand: none): 23.6 nM

GGUCAGAUGGUAGGAUAUCUAUAUCGAGUGACCCUUUCAUAACAUGAGGAUCACCCAUGUCGGUGGGAGAAGGGCCGUACGGCG [salish99_ExNG02_R04_012] (Eterna round: R96, puzzle: Exclusion NG 2)
apparent KD of MS2 coat protein (input ligand: FMN 200 uM): 41.1 nM
apparent KD of MS2 coat protein [4]: 30.6 nM
apparent KD of MS2 coat protein (input ligand: none): 40.2 nM

GGUCAGCUAGGAUAUACAUGAGGAUCACCCAUGUACUGACCCAUGCGGUAGUCCGCAUGUAGAAGGAGCAAAAU [Cebiin] (Eterna round: R97, puzzle: Exclusion 3)
apparent KD of MS2 coat protein (input ligand: FMN 200 uM): 11.3 nM
apparent KD of MS2 coat protein (input ligand: none): 18.2 nM

GGUCAUCAAGUCAGGAUAUCGUCUGGUCGGUCUGGCGAGAAGGGACAUGAGGAUCACCCAUGUCGACUCAUCAG [Ex4 #11] (Eterna round: R97, puzzle: Brourd's mod of Exclusion 4)
apparent KD of MS2 coat protein (input ligand: FMN 200 uM): 29.2 nM
apparent KD of MS2 coat protein (input ligand: none): 17.6 nM

GGUCCACAUGAGGAUCACCCAUGUUAGGAUAUCUCCUGCCUCCUCACUGGAGGCAGACAGAGAAGGAACAUCAA [Eratxe] (puzzle: Exclusion 1)
apparent KD of MS2 coat protein [1]: 78.3 nM
apparent KD of MS2 coat protein [2]: 22 nM
apparent KD of MS2 coat protein [3]: 23.9 nM

GGUCCACGAGGAUAUCGAUUAUAGUACAUGAGGAUCACCCAUGUUGUCCAGGUUUCGAUUCGAGAAGGCGUGGGUU [LRO-Ex5-02] (puzzle: Exclusion 5)
apparent KD of MS2 coat protein [2]: 51.8 nM

GGUCCGAGUGUGAGGAUAUGCUGGUCCUUGGAUCAGCAGAAGGCACAUGAGGAUCACCCAUGUGGUGUCGGACC [Mat - Exclusion 4 - Eli Mod - D32] (Eterna round: R97, puzzle: Brourd's mod of Exclusion 4)
apparent KD of MS2 coat protein (input ligand: FMN 200 uM): 140 nM
apparent KD of MS2 coat protein (input ligand: none): 932 nM

GGUCCGUGUGUGAGGAUAUGCUGGUCCUUGGAUCAGCAGAAGGCACAUGAGGAUCACCCAUGUGGUGUCGGACC [Mat - Exclusion 4 - Eli Mod - D33] (Eterna round: R97, puzzle: Brourd's mod of Exclusion 4)
apparent KD of MS2 coat protein (input ligand: FMN 200 uM): 24.6 nM
apparent KD of MS2 coat protein (input ligand: none): 361 nM

GGUCGACAUGAGGAUCACCCAUGUCAGGAUAUCGUCACUGGAGCUUCGGCUCCAGUGACGAGAAGGGAUAUGAU [E1/17-A1] (Eterna round: R97, puzzle: Exclusion 1)
apparent KD of MS2 coat protein (input ligand: FMN 200 uM): 39.1 nM
apparent KD of MS2 coat protein (input ligand: none): 34.2 nM

GGUCGGCGAGGAUAUACAUGAGGAUCACCCAUGUGAUAGAGUGCACGCGUACGUGUACGUAGAAGGCGCUGACG [JL-ex3-3.28 salish99 mod] (puzzle: Exclusion 3)
apparent KD of MS2 coat protein [1]: 26.4 nM
apparent KD of MS2 coat protein [2]: 13.2 nM
apparent KD of MS2 coat protein [3]: 12.5 nM

GGUCGUAGACAGGAUAUGCGGCAAAGAAACAAAGCAGAAGGGUCUACUUGAGGAUCACCCAAGUGGGCGGUUAA [Atrele] (Eterna round: R97, puzzle: Exclusion 6)
apparent KD of MS2 coat protein (input ligand: FMN 200 uM): 153 nM
apparent KD of MS2 coat protein (input ligand: none): 20.4 nM

GGUCGUCAAGUCAGGAUAUCGUUUGGUCGGUGUAACGAGAAGGGACAUGAGGAUCACCCAUGUCGUCUCAUCAG [Ex4 #28] (Eterna round: R97, puzzle: Brourd's mod of Exclusion 4)
apparent KD of MS2 coat protein (input ligand: FMN 200 uM): 29.3 nM
apparent KD of MS2 coat protein (input ligand: none): 20.4 nM

GGUCUACAUGAGGAUCACCCAUGUAAGGAUAUCGUCACUGGAGCUUCGGCUCCAGUGACGAGAAGGUGCAUAAU [E1/11-A1] (Eterna round: R97, puzzle: Exclusion 1)
apparent KD of MS2 coat protein (input ligand: FMN 200 uM): 35.4 nM
apparent KD of MS2 coat protein (input ligand: none): 27.2 nM

GGUCUUCAAGUCAGGAUAUCGUCUAGUCGGUCUGGCGAGAAGGGACAUGAGGAUCACCCAUGUCGUCUCAUCAG [Ex4 #14] (Eterna round: R97, puzzle: Brourd's mod of Exclusion 4)
apparent KD of MS2 coat protein (input ligand: FMN 200 uM): 30.6 nM
apparent KD of MS2 coat protein (input ligand: none): 19.9 nM

GGUGAAGCAGGAUAUGUAUCGGCAUACAUGAGGAUCACCCAUGUCAUGUAGAUACCGCAUAUAGAAGGGCUUCACC [Exclusion 5 (FMN-MS2 slide v.5)] (Eterna round: R97, puzzle: Exclusion 5)
apparent KD of MS2 coat protein (input ligand: FMN 200 uM): 41.1 nM
apparent KD of MS2 coat protein (input ligand: none): 16.9 nM

GGUGCGUAUGUGAGGAUAUGCUGGUCCUUGGAUCAGCAGAAGGCACAUGAGGAUCACCCAUGUGGUGUCGUACG [salish99_Bmod_Ex4_012] (puzzle: Brourd's mod of Exclusion 4)
apparent KD of MS2 coat protein [2]: 54.6 nM

GGUGCGUAUGUGAGGAUAUGCUGGUCCUUGGAUCAGCAGAAGGCACAUGAGGAUCACCCAUGUGGUGUCGUGCC [salish99_Bmod_Ex4_019] (Eterna round: R96, puzzle: Brourd's mod of Exclusion 4)
apparent KD of MS2 coat protein (input ligand: FMN 200 uM): 132 nM
apparent KD of MS2 coat protein [4]: 741 nM
apparent KD of MS2 coat protein (input ligand: none): 1050 nM
